Measured values published in US20050032681A1 (TEMPLE UNIV OF THE COMMONWEALTH SYSTEM OF HIGHER EDUCATION …, published 2005).

Key:
human α-thrombin = human α-thrombin (human, UniProt P00734 328-363; P00734 364-622); assay: pseudo-first-order thrombin inhibition kinetics, residual activity with S-2238, 25 C, polybrene
Experimental: (§1) Forty μL aliquots of ATIII samples at varying concentrations (450 nM, 300 nM, 150 nM) in PNE-PEG plus 50 μL polybrene (to neutralize any contaminating heparin) were preloaded into quadruplicate wells of a low-binding 96-well assay plate (Corning). The plate was maintained at 25° C., and 20 μL aliquots of 30 nM human thrombin or 15 nM human factor Xa were added to each of the four wells at successive 5 minute intervals. Reactions were quenched 5 minutes after addition of enzyme to the last of the wells by the adding 100 μL of 1.5 mM chromogenic substrate (S-2238 for thrombin; S-2765 for factor Xa). Residual enzyme activity was measured on a BioTek ELS11X kinetic plate reader controlled by a Macintosh SE with Deltasoft software. Initial rates of chromogenic substrate cleavage were monitored at 405 nm.

[1] = molecular target: T1, human neutrophil elastase (human, UniProt P08246 30-247, limits assumed); assay: cell-based or functional assay
T1 sequence (looked up): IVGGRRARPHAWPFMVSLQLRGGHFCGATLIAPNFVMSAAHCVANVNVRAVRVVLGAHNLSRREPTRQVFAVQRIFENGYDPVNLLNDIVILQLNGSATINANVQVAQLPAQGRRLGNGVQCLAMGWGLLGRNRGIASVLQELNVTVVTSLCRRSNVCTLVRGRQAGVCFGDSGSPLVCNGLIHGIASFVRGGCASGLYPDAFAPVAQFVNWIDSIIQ

human factor Xa = molecular target: T2, human factor Xa (human, UniProt P00742 41-179; P00742 235-488, limits assumed); assay: pseudo-first-order factor Xa inhibition kinetics, residual activity with S-2765, 25 C, polybrene
T2 construct: that the active enzyme has two chains is from general knowledge
Experimental: as §1

T2 sequence (P00742 41-179 limits assumed, chain 1 of 2): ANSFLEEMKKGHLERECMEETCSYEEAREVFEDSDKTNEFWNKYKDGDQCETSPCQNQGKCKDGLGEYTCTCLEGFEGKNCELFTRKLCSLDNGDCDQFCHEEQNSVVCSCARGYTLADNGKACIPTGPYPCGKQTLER
T2 sequence (P00742 235-488 limits assumed, chain 2 of 2): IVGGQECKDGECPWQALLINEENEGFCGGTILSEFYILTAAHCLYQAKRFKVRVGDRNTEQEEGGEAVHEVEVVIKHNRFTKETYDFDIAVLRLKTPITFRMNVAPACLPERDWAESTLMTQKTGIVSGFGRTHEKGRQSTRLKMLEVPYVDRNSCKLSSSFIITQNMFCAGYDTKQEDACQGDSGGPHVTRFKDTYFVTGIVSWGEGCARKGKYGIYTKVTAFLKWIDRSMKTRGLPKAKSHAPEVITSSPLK

B1: 5EA modified ATIII (on human ATIII.N135A background) (other)
chain: HGSPVDICTAKPRDIPMNPMCIYRSPEKKATEDEGSEQKIPEATNRRVWELSKANSRFATTFYQHLADSKNDNDNIFLSPLSISTAFAMTKLGACNDTLQQLMEVFKFDTISEKTSDQIHFFFAKLNCRLYRKAAKSSKLVSANRLFGDKSLTFNETYQDISELVYGAKLQPLDFKENAEQSRAAINKWVSNKTEGRITDVIPSEAINELTVLVLVNTIYFKGLWKSKFSPENTRKELFYKADGESCSASMMYQEGKFRYRRVAEGTQVLELPFKGDDITMVLILPKPEKSLAKVEKELTPEVLQEWLDELEEMMLVVHMPRFRIEDGFSLKEQLQDMGLVDLFSPEKSKLPGIVAEGRDDLYVSDAFHKAFLEVNEEGSEAAASTAVEAAGRSLNPNRVTFKANRPFLVFIREVPLNTIIFMGRVANPCVK
notes: Recombinant, baculovirus/Sf9, N135A background; also called AT.5EA
What does the source list for B1?
kapp (apparent second-order rate constant of association) (human α-thrombin): 600 M⁻¹ s⁻¹; HNE resistance T1/2, min [1]: 3.2 min; kapp (apparent second-order rate constant of association) (human factor Xa): 3100 M⁻¹ s⁻¹

B2: Bb.C modified ATIII (on human ATIII.N135A background) (other)
chain: HGSPVDICTAKPRDIPMNPMCIYRSPEKKATEDEGSEQKIPEATNRRVWELSKANSRFATTFYQHLADSKNDNDNIFLSPLSISTAFAMTKLGACNDTLQQLMEVFKFDTISEKTSDQIHFFFAKLNCRLYRKAAKSSKLVSANRLFGDKSLTFNETYQDISELVYGAKLQPLDFKENAEQSRAAINKWVSNKTEGRITDVIPSEAINELTVLVLVNTIYFKGLWKSKFSPENTRKELFYKADGESCSASMMYQEGKFRYRRVAEGTQVLELPFKGDDITMVLILPKPEKSLAKVEKELTPEVLQEWLDELEEMMLVVHMPRFRIEDGFSLKEQLQDMGLVDLFSPEKSKLPGIVAEGRDDLYVSDAFHKAFLEVNEEGSEAAASEEGEASGRSLNPNRVTFKANRPFLVFIREVPLNTIIFMGRVANPCVK
modifications: Sf9-expressed glycoprotein: N-glycans expected at Asn 96, 155 and 192 (written N); Asn135 site removed by N135A.
Which “HNE resistance T1/2, min” value [1] does the source give for B2 here?
Its value is 437 min.

B3: 13 A modified ATIII (on human ATIII.N135A background) (other)
chain: HGSPVDICTAKPRDIPMNPMCIYRSPEKKATEDEGSEQKIPEATNRRVWELSKANSRFATTFYQHLADSKNDNDNIFLSPLSISTAFAMTKLGACNDTLQQLMEVFKFDTISEKTSDQIHFFFAKLNCRLYRKAAKSSKLVSANRLFGDKSLTFNETYQDISELVYGAKLQPLDFKENAEQSRAAINKWVSNKTEGRITDVIPSEAINELTVLVLVNTIYFKGLWKSKFSPENTRKELFYKADGESCSASMMYQEGKFRYRRVAEGTQVLELPFKGDDITMVLILPKPEKSLAKVEKELTPEVLQEWLDELEEMMLVVHMPRFRIEDGFSLKEQLQDMGLVDLFSPEKSKLPGIVAEGRDDLYVSDAFHKAFLEVNEEGSEAAASTAVEGAGRSLNPNRVTFKANRPFLVFIREVPLNTIIFMGRVANPCVK
notes: Recombinant, baculovirus/Sf9, N135A background; also called AT.13.A
How did the “kapp (apparent second-order rate constant of association)” value (shortened to “kapp”) (human α-thrombin) turn out when B3 was run?
Its value is 200 M⁻¹ s⁻¹.

What about the “HNE resistance T1/2, min” value [1] of the same binder?
The value was 2.1 min.

And the “kapp” value (human factor Xa)?
Its value is 500 M⁻¹ s⁻¹.

B4: F2A′ modified ATIII (on human ATIII.N135A background) (other)
chain: HGSPVDICTAKPRDIPMNPMCIYRSPEKKATEDEGSEQKIPEATNRRVWELSKANSRFATTFYQHLADSKNDNDNIFLSPLSISTAFAMTKLGACNDTLQQLMEVFKFDTISEKTSDQIHFFFAKLNCRLYRKAAKSSKLVSANRLFGDKSLTFNETYQDISELVYGAKLQPLDFKENAEQSRAAINKWVSNKTEGRITDVIPSEAINELTVLVLVNTIYFKGLWKSKFSPENTRKELFYKADGESCSASMMYQEGKFRYRRVAEGTQVLELPFKGDDITMVLILPKPEKSLAKVEKELTPEVLQEWLDELEEMMLVVHMPRFRIEDGFSLKEQLQDMGLVDLFSPEKSKLPGIVAEGRDDLYVSDAFHKAFLEVNEEGSEAAASTQTPPNGRSLNPNRVTFKANRPFLVFIREVPLNTIIFMGRVANPCVK
B4 was tested. Which “HNE resistance T1/2, min” value [1] did it give?
Its value is 2.6 min.

B5: 13.D modified ATIII (on human ATIII.N135A background) (other)
chain: HGSPVDICTAKPRDIPMNPMCIYRSPEKKATEDEGSEQKIPEATNRRVWELSKANSRFATTFYQHLADSKNDNDNIFLSPLSISTAFAMTKLGACNDTLQQLMEVFKFDTISEKTSDQIHFFFAKLNCRLYRKAAKSSKLVSANRLFGDKSLTFNETYQDISELVYGAKLQPLDFKENAEQSRAAINKWVSNKTEGRITDVIPSEAINELTVLVLVNTIYFKGLWKSKFSPENTRKELFYKADGESCSASMMYQEGKFRYRRVAEGTQVLELPFKGDDITMVLILPKPEKSLAKVEKELTPEVLQEWLDELEEMMLVVHMPRFRIEDGFSLKEQLQDMGLVDLFSPEKSKLPGIVAEGRDDLYVSDAFHKAFLEVNEEGSEAAASTALEGAGRSLNPNRVTFKANRPFLVFIREVPLNTIIFMGRVANPCVK
notes: Recombinant, baculovirus/Sf9, N135A background; also called AT.13.D
Which results are given for B5?
HNE resistance T1/2, min [1]: 2.6 min; kapp (apparent second-order rate constant of association) (human factor Xa): 3300 M⁻¹ s⁻¹

B6: 13.C modified ATIII (on human ATIII.N135A background) (other)
chain: HGSPVDICTAKPRDIPMNPMCIYRSPEKKATEDEGSEQKIPEATNRRVWELSKANSRFATTFYQHLADSKNDNDNIFLSPLSISTAFAMTKLGACNDTLQQLMEVFKFDTISEKTSDQIHFFFAKLNCRLYRKAAKSSKLVSANRLFGDKSLTFNETYQDISELVYGAKLQPLDFKENAEQSRAAINKWVSNKTEGRITDVIPSEAINELTVLVLVNTIYFKGLWKSKFSPENTRKELFYKADGESCSASMMYQEGKFRYRRVAEGTQVLELPFKGDDITMVLILPKPEKSLAKVEKELTPEVLQEWLDELEEMMLVVHMPRFRIEDGFSLKEQLQDMGLVDLFSPEKSKLPGIVAEGRDDLYVSDAFHKAFLEVNEEGSEAAASTELEGAGRSLNPNRVTFKANRPFLVFIREVPLNTIIFMGRVANPCVK
notes: Recombinant, baculovirus/Sf9, N135A background; also called AT.13.C
How did the “HNE resistance T1/2, min” value [1] turn out when B6 was run?
Its value is 10.1 min.

And the “kapp” value (human factor Xa)?
The value was 5100 M⁻¹ s⁻¹.

B7: Bb.D modified ATIII (on human ATIII.N135A background) (other)
chain: HGSPVDICTAKPRDIPMNPMCIYRSPEKKATEDEGSEQKIPEATNRRVWELSKANSRFATTFYQHLADSKNDNDNIFLSPLSISTAFAMTKLGACNDTLQQLMEVFKFDTISEKTSDQIHFFFAKLNCRLYRKAAKSSKLVSANRLFGDKSLTFNETYQDISELVYGAKLQPLDFKENAEQSRAAINKWVSNKTEGRITDVIPSEAINELTVLVLVNTIYFKGLWKSKFSPENTRKELFYKADGESCSASMMYQEGKFRYRRVAEGTQVLELPFKGDDITMVLILPKPEKSLAKVEKELTPEVLQEWLDELEEMMLVVHMPRFRIEDGFSLKEQLQDMGLVDLFSPEKSKLPGIVAEGRDDLYVSDAFHKAFLEVNEEGSEAAASEEGEGSGRSLNPNRVTFKANRPFLVFIREVPLNTIIFMGRVANPCVK
notes: Recombinant, baculovirus/Sf9, N135A background; also called AT.Bb.D
For B7, which “kapp” value (human α-thrombin) is on record?
Its value is 100 M⁻¹ s⁻¹.

What about the “HNE resistance T1/2, min” value [1] of the same binder?
The value was over 45 min.

B8: Aa modified ATIII (on human ATIII.N135A background) (other)
chain: HGSPVDICTAKPRDIPMNPMCIYRSPEKKATEDEGSEQKIPEATNRRVWELSKANSRFATTFYQHLADSKNDNDNIFLSPLSISTAFAMTKLGACNDTLQQLMEVFKFDTISEKTSDQIHFFFAKLNCRLYRKAAKSSKLVSANRLFGDKSLTFNETYQDISELVYGAKLQPLDFKENAEQSRAAINKWVSNKTEGRITDVIPSEAINELTVLVLVNTIYFKGLWKSKFSPENTRKELFYKADGESCSASMMYQEGKFRYRRVAEGTQVLELPFKGDDITMVLILPKPEKSLAKVEKELTPEVLQEWLDELEEMMLVVHMPRFRIEDGFSLKEQLQDMGLVDLFSPEKSKLPGIVAEGRDDLYVSDAFHKAFLEVNEEGSEAAASTAEGGGGRSLNPNRVTFKANRPFLVFIREVPLNTIIFMGRVANPCVK
notes: Recombinant, baculovirus/Sf9, N135A background; also called AT.Aa
Which “kapp” value (human α-thrombin) does the source give for B8 here?
The value was 400 M⁻¹ s⁻¹.

What about the “HNE resistance T1/2, min” value [1] of the same binder?
Its value is 9.1 min.

What about the “kapp” value (human factor Xa) of the same binder?
Its value is 400 M⁻¹ s⁻¹.

B9: 7EVEA modified ATIII (on human ATIII.N135A background) (other)
chain: HGSPVDICTAKPRDIPMNPMCIYRSPEKKATEDEGSEQKIPEATNRRVWELSKANSRFATTFYQHLADSKNDNDNIFLSPLSISTAFAMTKLGACNDTLQQLMEVFKFDTISEKTSDQIHFFFAKLNCRLYRKAAKSSKLVSANRLFGDKSLTFNETYQDISELVYGAKLQPLDFKENAEQSRAAINKWVSNKTEGRITDVIPSEAINELTVLVLVNTIYFKGLWKSKFSPENTRKELFYKADGESCSASMMYQEGKFRYRRVAEGTQVLELPFKGDDITMVLILPKPEKSLAKVEKELTPEVLQEWLDELEEMMLVVHMPRFRIEDGFSLKEQLQDMGLVDLFSPEKSKLPGIVAEGRDDLYVSDAFHKAFLEVNEEGSEAAASTEVEAAGRSLNPNRVTFKANRPFLVFIREVPLNTIIFMGRVANPCVK
notes: Recombinant, baculovirus/Sf9, N135A background; also called AT.7EVEA
B9 was tested. Which “kapp” value (human α-thrombin) did it give?
The value was 600 M⁻¹ s⁻¹.

And the “HNE resistance T1/2, min” value [1]?
Its value is 5.6 min.

What about the “kapp” value (human factor Xa) of the same binder?
The value was 4800 M⁻¹ s⁻¹.

B10: 13.B modified ATIII (on human ATIII.N135A background) (other)
chain: HGSPVDICTAKPRDIPMNPMCIYRSPEKKATEDEGSEQKIPEATNRRVWELSKANSRFATTFYQHLADSKNDNDNIFLSPLSISTAFAMTKLGACNDTLQQLMEVFKFDTISEKTSDQIHFFFAKLNCRLYRKAAKSSKLVSANRLFGDKSLTFNETYQDISELVYGAKLQPLDFKENAEQSRAAINKWVSNKTEGRITDVIPSEAINELTVLVLVNTIYFKGLWKSKFSPENTRKELFYKADGESCSASMMYQEGKFRYRRVAEGTQVLELPFKGDDITMVLILPKPEKSLAKVEKELTPEVLQEWLDELEEMMLVVHMPRFRIEDGFSLKEQLQDMGLVDLFSPEKSKLPGIVAEGRDDLYVSDAFHKAFLEVNEEGSEAAASTEVEGAGRSLNPNRVTFKANRPFLVFIREVPLNTIIFMGRVANPCVK
notes: Recombinant, baculovirus/Sf9, N135A background; also called AT.13.B
B10 was tested. Which “HNE resistance T1/2, min” value [1] did it give?
The value was 7.6 min.

And the “kapp” value (human factor Xa)?
Its value is 2800 M⁻¹ s⁻¹.
